To fix the notation:
B1: TPR 5TU (parent)
chain: GGAUCUUCUCGAUCUAACAAAAAAGACAAAUCUGCCACAAAGCUUGAGAGCAUCUUCGGAUGCAGAGGCGGCAGCCUUCGGUGGCGCGAUAGCGCCAACGUUCUCAACUAUGACACGCAAAACGCGUGCUCCGUUGAAUGGAGUUUAUCAUG

Variants at the floor of the assay were thinned out.

Variants of B1 are the subject of the data set. Description: polymerase ribozyme fitness, log enrichment relative to wild type (log ratio); higher = more active; in vitro selection for triplet polymerase activity. In outline: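 Input and output libraries were sequenced on Illumina after a single in vitro selection round, run in triplicate on PCR-built, transcribed mutant libraries of each subunit of a heterodimeric triplet polymerase ribozyme. Selection annealed libraries to a biotinylated primer, the partner subunit and triplets, incubated them frozen at −7 °C, then gel-excised extended constructs for streptavidin-bead capture and RT-PCR. Genotypes with ≥10 input reads and ≥1 read per output were kept. Fitness is the logarithm, taken in base 2, of genotype enrichment divided by wild-type enrichment, using inverse-variance-weighted replicate averages.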
Regarding A37G C57G A97G, the “polymerase ribozyme fitness (log ratio)” value was -2.57.
In the case of C14G A39G A49U U56A G81U, the “polymerase ribozyme fitness (log ratio)” value is not above -4.2.
As to C5A A16C A19U U61A, the “polymerase ribozyme fitness (log ratio)” value is -2.61.
In the case of U15A A47C C54G A115G U127C U146A, the “polymerase ribozyme fitness (log ratio)” value was -1.14.
On to A30U G70A, for which the “polymerase ribozyme fitness (log ratio)” value was not above -4.2.
Turning to U31C G70A A98G G124C, the “polymerase ribozyme fitness (log ratio)” value was not above -4.2.
Next, U53G C69A C99U C118A: not above -4.2; C27G C51U C54A U78A G94C: not above -4.2.
The figure for C10A A12G U53A U55A G92C G94C C105U is not above -4.2.
The figure for C14A U61G U111A A121C is not above -4.2.
Turning to U7G A26U U56A G59U C75G G84U G94U U130G U146C, the “polymerase ribozyme fitness (log ratio)” value is not above -4.2.
With C35U U56A C95A C105U G126C, the “polymerase ribozyme fitness (log ratio)” value was -1.08.
As for C96U A147G, the “polymerase ribozyme fitness (log ratio)” value is -1.18.
Turning to C96U A147U, the “polymerase ribozyme fitness (log ratio)” value was found to be 1.21.
Consider A22U G50C, for which the “polymerase ribozyme fitness (log ratio)” value was -2.99.
Next, U78G C96U A107U G141C A150G: not above -4.2; C18G U55A: -0.923.
As for C85U C93U C131A, the “polymerase ribozyme fitness (log ratio)” value was -2.94.
Next, A19U G70A U82A U127G: not above -4.2; C69U C87U G92C A150G: -3.27; G136U G143C: -3.26.
In the case of C10U C27G C54U G92C C114G, the “polymerase ribozyme fitness (log ratio)” value is not above -4.2.
Consider U53A G136U U144G, for which the “polymerase ribozyme fitness (log ratio)” value was -1.85.
Next, A137U U144G: -4.2; A12U A47G C118G: -1.11; A19G A29G C38A U53A C76U G86U C99U: not above -4.2.
As for C54A U55G A107U U109C G117A C118U A121C, the “polymerase ribozyme fitness (log ratio)” value is not above -4.2.
Take C10U U135A G141A C149G: the “polymerase ribozyme fitness (log ratio)” value was not above -4.2.
A22U C99U U101G A115U U151G: the “polymerase ribozyme fitness (log ratio)” value was not above -4.2.
In the case of U56A G58C U61A G86U C87A G100U, the “polymerase ribozyme fitness (log ratio)” value is not above -4.2.
The figure for G133U U148G is -4.1; for G74A G84A A107G it is not above -4.2.
With C72G C105U, the “polymerase ribozyme fitness (log ratio)” value was -3.5.
In the case of C18U A26G G58A C87A A97U G133A, the “polymerase ribozyme fitness (log ratio)” value is not above -4.2.
As to G84C G94A, the “polymerase ribozyme fitness (log ratio)” value was -4.07.
Next, A73U C96U G112A: not above -4.2; C18U C108U: -3.57.
For the variant A12G A28C C79U U82C G86U G88A A106U C129U U148G G152U, the “polymerase ribozyme fitness (log ratio)” value is not above -4.2.
G25C G48A C87U A142G: the “polymerase ribozyme fitness (log ratio)” value was -4.11.
Regarding G71C A73C C108U U146C C149G, the “polymerase ribozyme fitness (log ratio)” value was not above -4.2.
On to G86A G100A, for which the “polymerase ribozyme fitness (log ratio)” value is -3.89.
For the variant C85A C87U, the “polymerase ribozyme fitness (log ratio)” value was not above -4.2.
For U9G A21U A24G C72U A147C, the “polymerase ribozyme fitness (log ratio)” value was not above -4.2.
A37C G86U A120U U146G: the “polymerase ribozyme fitness (log ratio)” value is -3.9.
For the variant A20U G48C C57G G128A, the “polymerase ribozyme fitness (log ratio)” value was not above -4.2.
Next, C96G U146C: -1.45; U4C C85A C95G A115G: -3.75.
For G34C C87U, the “polymerase ribozyme fitness (log ratio)” value was -3.33.
Regarding A40C A98G U146G G152C, the “polymerase ribozyme fitness (log ratio)” value was not above -4.2.
With C5G G84U, the “polymerase ribozyme fitness (log ratio)” value is -2.38.
For C8G C32U G80U, the “polymerase ribozyme fitness (log ratio)” value is -4.14.
On to A26C A66C G81C G83C, for which the “polymerase ribozyme fitness (log ratio)” value was -4.1.
In the case of A49C U134G, the “polymerase ribozyme fitness (log ratio)” value was not above -4.2.
A16G G34C C35A C54A C93A: the “polymerase ribozyme fitness (log ratio)” value is not above -4.2.
As for A3U U7A C14A A41C U45G C69A C87A G94A A121C, the “polymerase ribozyme fitness (log ratio)” value was not above -4.2.
As for A47G U90C G92C G128U A137C A147C, the “polymerase ribozyme fitness (log ratio)” value was not above -4.2.
Regarding G48A C57A, the “polymerase ribozyme fitness (log ratio)” value was found to be 0.284.
The figure for G80C G92U is -3.97; for U56A A73U C87G C99G it is not above -4.2.
Take C10G A64C C76A G92C U135A A138G U151G: the “polymerase ribozyme fitness (log ratio)” value is not above -4.2.
For U4G A52C G83A, the “polymerase ribozyme fitness (log ratio)” value was -2.69.
Consider G59C G86U, for which the “polymerase ribozyme fitness (log ratio)” value is -1.67.
Regarding A52C C75U C85G C95G, the “polymerase ribozyme fitness (log ratio)” value is not above -4.2.
For the variant C35U G117C C118U, the “polymerase ribozyme fitness (log ratio)” value is -1.01.
For U33C C36U C54A C72U G84U C85A U148G, the “polymerase ribozyme fitness (log ratio)” value was not above -4.2.
A47C C57A G84A U101C: the “polymerase ribozyme fitness (log ratio)” value is -0.765.
Take G68C A89G G94A A113U: the “polymerase ribozyme fitness (log ratio)” value was not above -4.2.
On to U56G A64U G81A G88A C114A A115U G141U, for which the “polymerase ribozyme fitness (log ratio)” value was not above -4.2.
With U31C C95A C96A U134C G143A U145G, the “polymerase ribozyme fitness (log ratio)” value is -3.45.
Next, A12G C63U G83C C95U U109A: -2.16; G11C C125G A142C: not above -4.2; C57G G59A C118U C125A G136C: -3.19.
On to A12G G48A G71A G86A G126U C131A G140U C149A A150G, for which the “polymerase ribozyme fitness (log ratio)” value is not above -4.2.
The figure for C14G C54G G68C C85U C105A C114A A137U is not above -4.2; for C85U C108U it is -3.1; for G94A C131U it is 0.309.
As for C54G G140U, the “polymerase ribozyme fitness (log ratio)” value was -3.63.
For the variant A21G A26C A66U C87G A115C U134C U146A, the “polymerase ribozyme fitness (log ratio)” value is not above -4.2.
Take C57U G59C C93A U135G: the “polymerase ribozyme fitness (log ratio)” value was not above -4.2.
As for G100U, the “polymerase ribozyme fitness (log ratio)” value is -2.58.
Regarding G133U U135G, the “polymerase ribozyme fitness (log ratio)” value is -4.04.
The figure for A22C G62U A73U G88U C99U C118A U144C is not above -4.2.
Next, G84A A97U U134A: -3.23; A37C A49C G124A U130G: not above -4.2.

Values taken from the RNAGym collection of RNA variant scans (doi:10.1073/pnas.2313332121).
